Here are results for 1 molecule from publication PMC6237754, “A monovalent ion in the DNA binding interface of the eukaryotic junction-resolving enzyme GEN1”.

This data set concerns the target T1, CtGEN1 (Chaetomium thermophilum, UniProt G0RYN2 1-487).
T1 sequence: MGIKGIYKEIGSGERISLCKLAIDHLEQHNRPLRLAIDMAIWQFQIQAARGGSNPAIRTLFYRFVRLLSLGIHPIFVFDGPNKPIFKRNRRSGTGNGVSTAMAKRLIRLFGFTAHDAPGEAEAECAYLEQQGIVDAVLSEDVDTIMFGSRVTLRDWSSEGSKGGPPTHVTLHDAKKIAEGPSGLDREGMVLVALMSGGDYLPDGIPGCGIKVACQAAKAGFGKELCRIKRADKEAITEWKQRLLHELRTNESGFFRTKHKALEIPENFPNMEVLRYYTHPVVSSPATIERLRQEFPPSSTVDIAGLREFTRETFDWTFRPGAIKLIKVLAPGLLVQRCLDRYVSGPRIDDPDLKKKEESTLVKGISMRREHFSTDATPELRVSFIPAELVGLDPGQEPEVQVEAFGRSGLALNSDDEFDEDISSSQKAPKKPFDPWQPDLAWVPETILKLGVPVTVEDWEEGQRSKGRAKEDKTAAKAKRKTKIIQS
As to the kind of experiment: EMSA; 100 mM KCl; EMSA: equal volumes of DNA in 10 mM Tris pH 7.5, 0.1% BSA, 100 mM KCl or NaCl and CtGEN1 in 10 mM Tris pH 7.5, 100 mM NDSB-195, 0.1% BSA, 1 mM EDTA; 20 min, 20. The settings on record: protein: recombinant; tags: C-terminal His6; chain copies: 2; label: 5'-32P; four-way junction; strands b/h/r/x, 50 nt each.

B1: four-way junction 3 (4H) (structured_DNA)
DNA 1: CCTCGAGGGATCCGTCCTAGCAAGGGGCTGCTACCGGAAGCTTACAGATG
DNA 2: CATCTGTAAGCTTCCGGTAGCAGCCTGAGCGGTGGTTGAATTCACAGATG
DNA 3: CATCTGTGAATTCAACCACCGCTCAACTCAACTGCAGTCTAGAACACATG
DNA 4: CATGTGTTCTAGACTGCAGTTGAGTCCTTGCTAGGACGGATCCCTCGAGG
Consider B1, for which the binding signal was ~2 fold higher affinity than in Na+.
